Measurements from paper PMC9507969, “Visualizing maturation factor extraction from the nascent ribosome by the AAA-ATPase Drg1” (Nature Structural & Molecular Biology, 2022).
Substitutions are numbered along the chain they refer to.

How the values were obtained:
Settings in all cases: both partners purified
[1] = target: T1, Nsa2 on the pre-60S particle (S. cerevisiae (endogenous in the yeast …, UniProt P40078 1-261)); test: cryo-EM structure; purified Drg1 (1.75 mg/ml, 12 µM) mixed 1:1 with 200 nM export-competent Bud20-TAP pre-60S particles, 2 mM ATPγS, 10 minutes; particle-bound Drg1 and free Drg1 hexamers picked from the same dataset
T1 construct: Nsa2 of S. cerevisiae; only His20 to Lys74 seen as density; source: endogenous, on pre-60S particles purified via Bud20-TAP from S. cerevisiae
T1 sequence (looked up): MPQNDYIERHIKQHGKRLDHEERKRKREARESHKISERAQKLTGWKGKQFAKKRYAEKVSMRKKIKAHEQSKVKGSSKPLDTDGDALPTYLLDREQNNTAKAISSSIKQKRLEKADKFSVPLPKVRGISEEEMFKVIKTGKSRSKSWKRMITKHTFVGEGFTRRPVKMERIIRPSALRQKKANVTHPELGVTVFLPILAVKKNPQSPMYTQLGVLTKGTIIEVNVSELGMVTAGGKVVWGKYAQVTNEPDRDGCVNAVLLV

[2] = target: T2, Drg1 (diazaborine resistance gene 1), wild type, purified (S. cerevisiae, UniProt P32794 1-780); test: pull-down; GST-tagged bait on GSH-agarose beads; 80 µg Drg1 in 120 µl binding buffer (20 mM HEPES-KOH, 150 mM potassium acetate, 5 mM magnesium acetate, 0.1% Tween-20, 1 mM DTT, pH 6.8); 1 mM ATP or ATPγS or no nucleotide; 60 minutes, room temperature
T2 construct: Drg1 (AFG2), hexameric type-II AAA-ATPase of S. cerevisiae, wild type; Hexamer in the cryo-EM maps; also called DRG1 (AFG2); AAA-ATPase Drg1; source: overexpressed in yeast as GST fusion (CuSO4-induced), purified on GSH-agarose, eluted by Prescission protease cleavage
T2 sequence: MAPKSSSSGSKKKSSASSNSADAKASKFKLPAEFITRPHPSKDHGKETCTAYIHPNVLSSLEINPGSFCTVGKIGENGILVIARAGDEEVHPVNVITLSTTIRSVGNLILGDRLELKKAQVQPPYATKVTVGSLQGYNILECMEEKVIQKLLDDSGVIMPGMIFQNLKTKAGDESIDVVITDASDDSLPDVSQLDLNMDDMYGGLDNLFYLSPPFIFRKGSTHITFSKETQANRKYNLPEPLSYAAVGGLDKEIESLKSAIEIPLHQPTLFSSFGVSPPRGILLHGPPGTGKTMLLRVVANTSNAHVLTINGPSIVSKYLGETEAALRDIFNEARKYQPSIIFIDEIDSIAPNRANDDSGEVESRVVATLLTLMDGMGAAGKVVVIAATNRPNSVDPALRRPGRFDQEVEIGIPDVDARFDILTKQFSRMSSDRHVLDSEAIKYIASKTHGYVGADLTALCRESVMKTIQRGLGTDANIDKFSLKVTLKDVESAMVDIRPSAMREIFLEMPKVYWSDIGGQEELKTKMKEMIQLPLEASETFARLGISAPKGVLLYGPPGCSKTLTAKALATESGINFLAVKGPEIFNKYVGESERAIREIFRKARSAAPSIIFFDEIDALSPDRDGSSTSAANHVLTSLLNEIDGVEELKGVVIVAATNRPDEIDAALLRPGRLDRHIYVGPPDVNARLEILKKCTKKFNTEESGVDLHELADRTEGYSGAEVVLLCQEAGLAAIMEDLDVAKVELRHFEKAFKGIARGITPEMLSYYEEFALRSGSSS

[3] = target: T3, Drg1EQ1 (E346Q), D1 Walker B variant, purified (S. cerevisiae, UniProt P32794 1-780, E346Q); test: as above
T3 construct: Drg1 (AFG2) of S. cerevisiae with the D1 Walker B exchange E346Q; source: overexpressed in yeast as GST fusion, purified on GSH-agarose, eluted by Prescission protease cleavage
T3 sequence: T2 sequence with E346Q

B1: Mrt4 on the pre-60S particle (natural protein, UniProt P33201 1-236, looked up)
chain: MPRSKRSKLVTLAQTDKKGRENKERIFDEVREALDTYRYVWVLHLDDVRTPVLQEIRTSWAGSKLIMGKRKVLQKALGEKREEEYKENLYQLSKLCSGVTGLLFTDEDVNTVKEYFKSYVRSDYSRPNTKAPLTFTIPEGIVYSRGGQIPAEEDVPMIHSLEPTMRNKFEIPTKIKAGKITIDSPYLVCTEGEKLDVRQALILKQFGIAASEFKVKVSAYYDNDSSTVESTNINME
notes: Mrt4 of S. cerevisiae; source: endogenous, on pre-60S particles purified via Bud20-TAP from S. cerevisiae
binding result [1]: binds

B2: GST-Arx1 (natural protein, S. cerevisiae)
chain: MALAISHEDTQILLKDKNILQESVLNKYRTAGQIAQTALKYVTSLINDSYHSKTTQRQLTVPELCLLTDSFILTRLEQYYKNKVNERGIAIPTTIDIDQISGGWCPEIDDTQNLLNWNKGKDSTFASSVTGTLRPGDLVKITLGVHIDGYTSEVSHTMVIYPVDETKPILQPTGPLLGGKADAVAAAHIAMETVVALLACALTPEKLPASLGGTSSGITGQLIRTIVDTIARSYNCGVVPGSRVRRIRRFLAGQNEGIVAEREYKGVVWTESHQEADLLSNTDAKDLTVVDRGQSTPFTNVSAIPSDDFVVQSGEVYLIDLKMASLEHCTKKGLVTLETVDSYTGKSHKAGELIARPGAYVRDFAQTHILKLKTSRQLLTKIDKQGVYPFKLSHLSSNFPFVHENEEELQSLKKDLKSFRLGMSEISNNYLCVESPIQIARWVPWDHILKATNPNGNLSYDATSTLTLPGHELPLPKLGVSAIKLKSLMNSTKESISLPVARECNTIVLCDSSVSTTDRPELLRLTGGSKTCQPSWIHSQHELNPQDSIVQGIFQLATLAKDKRFGLLLKETQPMKQKSVETSNGGVEETMKM
notes: Arx1 of S. cerevisiae; not shown: GST, N-terminal, kept
binding result [2]: binds
binding result [3]: binds
